Measured values published in doi:10.1101/497024.

Molecular target: HeV PNT3 (aa 200-310 of the Hendra virus P/V protein) (Hendra virus) (UniProt O55778)
Experiment: SAXS

Substance: HeV PNT3 (aa 200-310 of the Hendra virus P/V protein) (from UniProt O55778 200-310) (domain or fragment)
- stoichiometry N: 100 monomers
